Target: GST tagged Cdc42 Q61L (human) (UniProt P60953)
Experiment: pull-down

Chain of GST tagged Cdc42 Q61L (human) (P60953 whole entry Q61L): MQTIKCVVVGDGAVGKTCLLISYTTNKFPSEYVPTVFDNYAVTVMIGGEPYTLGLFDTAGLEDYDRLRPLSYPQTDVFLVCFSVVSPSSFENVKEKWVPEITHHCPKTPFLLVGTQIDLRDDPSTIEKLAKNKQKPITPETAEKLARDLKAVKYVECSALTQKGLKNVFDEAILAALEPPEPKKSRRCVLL

Q: Which fold reduction in binding against the lit state variant does the source give for “mVenus-Z-lock-WASP dark (zDK2-GS0-CBD-LOV2, dark state variant) (from UniProt P42768 230-288; O49003 404-546) (designed binder)” here?
A: The fold reduction in binding against the lit state variant was > 5 fold.

From paper PMC7054171
